Assay results published in publication PMC11420629 (2024).

Target: T1, GluR1 carboxy‐terminal region (SPR)
T1 chain: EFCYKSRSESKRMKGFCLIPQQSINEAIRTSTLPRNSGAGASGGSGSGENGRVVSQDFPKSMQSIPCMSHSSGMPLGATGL
Assay: SPR

Kd: 1010 nM
B1: full‐length CIRP protein (SPR) (natural protein)
chain: MASDEGKLFVGGLSFDTNEQALEQVFSKYGQISEVVVVKDRETQRSRGFGFVTFENIDDAKDAMMAMNGKSVDGRQIRVDQAGKSSDNRSRGYRGGSAGGRGFFRGGRSRGRGFSRGGGDRGYGGGRFESRSGGYGGSRDYYASRSQGGSYGYRSSGGSYRDSYDSYATHNE
